Source: US20140134176A1 (Pfizer, published 2014)

B1: MOR8457-mIgG1 (antibody)
heavy: EVQLVESGGGLVQPGGSLRLSCAASGFTFSSYAMSWVRQAPGKGLEWVSYISDDGSLKYYADSVKGRFTISRDNSKNTLYLQMNSLRAEDTAVYYCARHPYWYGGQLDLWGQGTLVTVSSAKTTPPSVYPLAPGSAAQTNSVTLGCLVKGYFPEPVTVTWNSGSLSSGVHTFPAVLQSDLYTLSSSVTVPSSTWPSETVTCNVAHPASSTKVDKKIVPRDCGCKPCICTVPEVSSVFIFPPKPKDVLTITLTPKVTCVVVDISKDDPEVQFSWFVDDVEVHTAQTQPREEQFNSTFRSVSELPIMHQDWLNGKEFKCRVNSAAFPAPIEKTISKTKGRPKAPQVYTIPPPKEQMAKDKVSLTCMITDFFPEDITVEWQWNGQPAENYKNTQPIMDTDGSYFVYSKLNVQKSNWEAGNTFTCSVLHEGLHNHHTEKSLSHSPGK
light: SYELTQPPSVSVAPGQTARISCSGDSLGSYFVHWYQQKPGQAPVLVIYDDSNRPSGIPERFSGSNSGNTATLTISGTQAEDEADYYCSAFTHNSDVFGGGTKLTVLQPKSSPSVTLFPPSSEELETNKATLVCTITDFYPGVVTVDWFTKVDGTPVTQGMETTQPSKQSNNKYMASSYLTLTARAWERHSSYSCQVTHEGHTVEFTKSLSRADCS
notes: Original MOR8457 VH + mouse wild type IgG1 constant; original VL + mouse wild type lambda constant
B2: MOR8457-Fab (Fab, V domains shown)
VH: EVQLVESGGGLVQPGGSLRLSCAASGFTFSSYAMSWVRQAPGKGLEWVSYISDDGSLKYYADSVKGRFTISRDNSKNTLYLQMNSLRAEDTAVYYCARHPYWYGGQLDLWGQGTLVTVSS
VL: SYELTQPPSVSVAPGQTARISCSGDSLGSYFVHWYQQKPGQAPVLVIYDDSNRPSGIPERFSGSNSGNTATLTISGTQAEDEADYYCSAFTHNSDVFGGGTKLTVL
notes: Fab format (HuCAL GOLD, expressed in E. coli); also called Fab-MOR8457

Assays:
[1] = molecular target: T1, human PDGF-AB (human, UniProt P04085 87-211, limits assumed); experiment: SPR (Biacore 2000), antibody captured via anti-mouse IgG, PDGF injected; off rate beyond instrument limit
T1 construct: Heterodimer of PDGF-A and PDGF-B, bought; also called huAB; Hu PDGF-AB
T1 sequence (chain, as listed by the source limits assumed, chain 2 of 2, other chains not shown): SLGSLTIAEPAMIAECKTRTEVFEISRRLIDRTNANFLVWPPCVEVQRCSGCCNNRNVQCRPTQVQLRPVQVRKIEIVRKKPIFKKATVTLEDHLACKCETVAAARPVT
Experimental: (§1) Anti-human (A-D, I-K) or anti-mouse (E-H) IgG antibodies were immobilized in flow cells of CM5 sensor chips. 1 μg/mL of MOR8457-IKR-hIgG1-3m (A-D), MOR8457-mIgG1 (E-H) or MOR8457-GL-hIgG1-3m (I-K) was injected independently over the respective anti-human or anti-mouse surface for 10 seconds resulting in a stable anti-PDGF surface between 50-100 RU. Different concentration of PDGF proteins, 0.25, 0.5, and 1 nM, was then injected over the antibody surface for 2 minutes at a flow rate of 100 μl/min for binding. The complex was allowed to dissociate for 10 minutes. The surface was regenerated with a 30 second injection of 10 mM magnesium chloride leaving the surface ready for another round of anti-PDGF antibody capture and PDGF binding kinetics. Each of these three antibodies bound tightly to human (A, E, I), mouse (B, F, J) and rat (C, G, K) PDGF-BB. MOR8457-IKR-hIgG1-3m (D) and MOR8457-mIgG1 (H) bound to human PDGF-AB. Each sensorgram shown is one representative of three independent experiments.
(§2) In order to test the specificity and cross species reactivity, the binding affinities of three MOR8457 IgG variants, MOR8457-IKR-hIgG1-3m, MOR8457-mIgG1, and MOR8457-GL-hIgG1-3m, to different human PDGF ligands, including human PDGF-AA, -AB, -DD, as well as rat PDGF-BB (all obtained from R&D systems, Minneapolis, Minn.) and mouse PDGF-BB (Invitrogen, Carlsbad, Calif.) were tested. Briefly, anti-human or anti-mouse IgG (GE Healthcare) antibodies were immobilized in adjacent flow cells of a CM5 sensor chip between 8000-10,000 resonance units (RU) using amine coupling as directed by the manufacturer. Antibodies were diluted into PBS-NET (10 mM Phosphate pH 7.4, 287 mM NaCl, 2.7 mM KCl, 3.2 mM EDTA, 0.01% Tween 20) to 1 μg/mL and injected independently over the respective anti-human or anti-mouse surface for 10 seconds resulting in a stable anti-PDGF surface between 50-100 RU. PDGF proteins were diluted to 1 nM in PBS-NET and serially diluted two-fold to 0.25 nM. Each concentration of PDGF was then injected over the antibody surface for 2 minutes at a flow rate of 100 μl/min. The complex was allowed to dissociate for 10 minutes. The surface was regenerated with a 30 second injection of 10 mM magnesium chloride leaving the surface ready for another round of anti-PDGF antibody capture and PDGF binding kinetics.

[2] = molecular target: T2, human PDGF-BB (human, UniProt P01127 82-190); experiment: as above
T2 construct: Recombinant human PDGF-BB homodimer, bought (Biosource PHG0043; R&D Systems); also called hPDGF-BB; huBB
T2 sequence (P01127 82-190 limits assumed): as the sequence (chain, as listed by the source limits assumed, chain 2 of 2, other chains not shown) above
Experimental: as §1, §2

[3] = molecular target: T3, mouse PDGF-BB (mouse, UniProt P31240 82-190); experiment: as above
T3 construct: also called muBB; Mu PDGF-BB
T3 sequence (P31240 82-190 limits assumed): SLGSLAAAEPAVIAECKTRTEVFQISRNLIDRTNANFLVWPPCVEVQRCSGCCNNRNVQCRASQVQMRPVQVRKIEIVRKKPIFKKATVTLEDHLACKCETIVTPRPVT
Experimental: as §1, §2

[4] = molecular target: T4, rat PDGF-BB (rat, UniProt Q05028 74-182); experiment: as above
T4 construct: also called ratBB
T4 sequence (Q05028 74-182 limits assumed): as the sequence (P31240 82-190 limits assumed) above, with I83V, I102V counted along it
Experimental: as §1, §2

[5] = molecular target: T1, human PDGF-AB; experiment: SPR (Biacore 2000), antibody captured via anti-mouse IgG, PDGF injected
Experimental: as §1, §2

[6] = molecular target: T2, human PDGF-BB; experiment: as above
Experimental: as §1, §2

[7] = molecular target: T3, mouse PDGF-BB; experiment: as above
Experimental: as §1, §2

[8] = molecular target: T4, rat PDGF-BB; experiment: as above
Experimental: as §1, §2

[9] = molecular target: T5, human PDGF-AA (human, UniProt P04085 87-211, limits assumed); experiment: SPR (Biacore), antibody captured
Experimental: as §2, with “kinetics. Kinetic data were double referenced (Myszka et al., 1999, J. Mol. Recognit. 12 279) using scrubber2 software (Bio-Logic Software), then fit to a 1:1 binding model using Biacore evaluation software version 4.1. The results shown were an average of three independent binding studies.” for “kinetics.”

[10] = molecular target: human PDGF-DD (human, UniProt Q9GZP0 250-370, limits assumed); experiment: SPR (Biacore), antibody captured
Chain of human PDGF-DD (Q9GZP0 250-370 limits assumed): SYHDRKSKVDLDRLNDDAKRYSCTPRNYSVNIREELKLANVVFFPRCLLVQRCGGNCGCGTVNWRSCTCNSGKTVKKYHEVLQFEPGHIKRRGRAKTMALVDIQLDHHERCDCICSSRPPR
Experimental: as §2, with “kinetics. Kinetic data were double referenced (Myszka et al., 1999, J. Mol. Recognit. 12 279) using scrubber2 software (Bio-Logic Software), then fit to a 1:1 binding model using Biacore evaluation software version 4.1. The results shown were an average of three independent binding studies.” for “kinetics.”

[11] = molecular target: T2, human PDGF-BB; experiment: SPR (Biacore) competition in solution: MOR8457-mIgG1 serially diluted, mixed with human PDGF-BB, 20 h at 2-8 C, mixture injected over PDGFRβ-hIgG1 captured on anti-human IgG; blocked partner PDGFRβ-hIgG1
Experimental: MOR8457-mIgG1 was serially diluted in PBS then mixed with […] of human PDGF-BB and incubated for 20 hours at 2-8° C. to reach equilibrium as indicated by the [brackets]. Each MOR8457-mIgG1 and PDGF-BB dilution mixture was then injected over the surface of PDGFRβ-hIgG1 captured by anti-human IgG1 on a CM5 chip. […] Data shown are from one representative experiment of two independent experiments.
Because of the complexity of the 2:1 binding stoichiometry, and also to avoid any potential artifacts introduced by sequential binding on the chip, the competitive binding was further confirmed by neutralizing PDGF-BB with MOR8457 in solution as illustrated by the diagram shown in FIG. 5A. MOR8457-mIgG1 was serially diluted in PBS then mixed with […] of human PDGF-BB and incubated for 20 hours at 2-8° C. to reach equilibrium. Each MOR8457-mIgG1 and PDGF-BB dilution mixture shown between [brackets] in FIG. 5A, was then injected over the surface of PDGFRβ-hIgG1 captured by anti-human IgG1 on a CM5 chip. FIG. 5B depicts a graph showing the concentration response curve of MOR8457 inhibition.

[12] = molecular target: T5, human PDGF-AA; experiment: ELISA
[13] = molecular target: T2, human PDGF-BB; experiment: cell-based or functional assay

Row | Binder | Kd [1] [nM] | Kd [2] [nM] | Kd [3] [nM] | Kd [4] [nM] | kon [5] [M⁻¹ s⁻¹] | kon [6] [M⁻¹ s⁻¹] | kon [7] [M⁻¹ s⁻¹] | kon [8] [M⁻¹ s⁻¹] | binding result [9] | binding result [10] | IC50 (read off the curve) [11] [nM] | binding result [12] | IC50, inhibition of PDGF-BB-induced PDGF-Rβ Tyr751 phosphorylation (PAE PDGF-Rβ cells) [13] [nM]
1 | B1 | < 0.01 | < 0.01 | < 0.01 | < 0.01 | 5.9e+06 | 1.12e+07 | 2.48e+07 | 1.42e+07 | no binding (tested: 0.25-1 nM PDGF) | no binding (tested: 0.25-1 nM PDGF) | ~0.04 | – | –
2 | B2 | – | – | – | – | – | – | – | – | – | – | – | no binding | 0.32
